In the supplement of paper PMC9170038:

Test system: MS2 coat protein
Assay: apparent KD of MS2 coat protein; higher = weaker reporter binding
Conditions: Eterna round: R107
Outline: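 Values are apparent KD, taken as the median for each design of fits to normalised binding curves from individual clusters. The designed RNA switches were transcribed on-chip from Illumina sequencing clusters and exposed to SNAP-549-labelled MS2 coat protein at twofold increasing amounts from 0.7 or 1.5 nM to 3 µM. Titration used 100 mM Tris-HCl pH 7.5, 80 mM KCl and 4 mM MgCl2, without or with constant ligand.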

[1] = input ligand: theophylline 20 uM
[2] = input ligand: tryptophan 2.4 mM
[3] = input ligand: theophylline 2 mM

Sequence	apparent KD of MS2 coat protein (input ligand: arginine 13.2 mM)	apparent KD of MS2 coat protein [1]	apparent KD of MS2 coat protein [2]	apparent KD of MS2 coat protein (input ligand: none)	apparent KD of MS2 coat protein [3]
UGACAUUGCUCAGAUACCAGACAUGAGGAUCACCCAUGUACCAAGAAAACGUACAUAAAUGUCCCUUGGCAGCUGAGCAAUGUCU [TheoBX 10 #MS2Left #Theo2]	175 nM	535 nM	531 nM		
UGACAUUGCUCAGAUACCAGACAUGAGGAUCACCCAUGUACCAAGAGUACAAAUUAAAAUGUCCCUUGGCAGCUGAGCAAUGUCU [TheoBX 7 #MS2Left #Theo2]	25.4 nM	37.8 nM	19.3 nM		
UGACAUUGCUCAGAUACCAGACAUGAGGAUCACCCAUGUGCCAAAUAAACGUACAUAAAUGUCCCUUGGCAGCUGAGCAAUGUCU [TheoBX 11 #MS2Left #Theo2]	46.8 nM	87.5 nM	59.1 nM		
UGACAUUGCUGCGAUACCAGACAUGAGGAUCACCCAUGUACCAAGAAAACGUACAUAAAUGUCCCUUGGCAGCGCAGCAAUGUCU [MAT - Exclusion Theophlline B - Mod of Eli - D25]	170 nM	593 nM	806 nM		
UGAGAACAUGUCUUUAAGUUUACCUCUGAUACCAGAUUGAAAGGCAUCCCUUGGCAGCAGCAUACAUGAGGAUCACCCAUGUCCU [theeternabot_exclusion_MS2_Theo_A_12]	64.4 nM	119 nM	88.9 nM		
UGAGUUCGCUGAUGGGCUACGUCAGGUGAUACCAGCCACUCCCGCGGCCCUUGGCAGCACAUGAGGAUCACCCAUGUAGAGCUUG [Lazaceonus]	17.9 nM	20.4 nM	14.1 nM	15.7 nM	254 nM
UGAUCCUGCAGGGAUACCAGCGCCGCUAGAUAACUAUGCACAUGAGGAUCACCCAUGUAACGCCCUUGGCAGCCCAGCUAAAGGG [Same State Theophylline B GF22]	23.1 nM	60.1 nM	48.1 nM	58.7 nM	31.3 nM
UGAUGGUACGGAAGGAGCGUGUAAGAACAAGAACAUGAGGAUCACCCAUGUAUUAAUUUAACACAGGUAGGUCGCCGUGUUAUUG [11.H]	31.9 nM	35.8 nM	16 nM	29.2 nM	54.7 nM
UGCCGAGACGUGGAUUACCCAUGUACCGAAGGAGCGCCCGAAAGGGCAGGUAGGUCGCGGAGGACAUGAGGAUCACCCAUGUCGA	83.8 nM	127 nM	47 nM	34.5 nM	166 nM
UGGGUACCGACGGCCGCCACUGACUAUAGACAUGAGGAUCACCCAUGUAGAGAUCCUAGACUACCCAGGACCGGGUCUGGUGCUA [Exclusion Tryptophane B GF6]	61 nM	165 nM			149 nM
UGGUGUAGGGUAAAUAGGAUUAGUACAGAAGGAGCGCGAAUAAACGCAGGUAGGUCGCUGGAAUAACAUGAGGAUCACCCAUGUC [Same State Arginine A GF 26]	19.6 nM	30.6 nM	27.8 nM	24.8 nM	26.2 nM
UGUAACAUGAGGAUCACCCAUGUGAGUGAUACCAGAUAAGUAGUAGUCCCUUGGCAGCAUAUUGGGCGAGUGUAUAGUCUAUACG [Same State - Theophylline A (Freestyle 8)]	111 nM	183 nM	150 nM		
UGUAUGGACUGAAGGAGCGCCUCAAAAUAGCUUGAGGAUCACCCAAGUAAGGCGAAAGCCGGGCAGGUAGGUCGCAGUCCAUACU [ArgBX 3]	12.3 nM	16.6 nM	14.8 nM	14.3 nM	15.2 nM
UGUAUGGACUGAAGGAGCGGAAGAUAACCUGAGGAUCACCCGGGUAAUAAGGCGAAAGCCUUCCAGGUAGGUCGCAGUCCAUACU	230 nM	334 nM	250 nM	293 nM	419 nM
UGUAUGGACUGAAGGAGCGGGAAAUAAACCUGAGGAACACCCAGGUAAUAGGCGAAAGCCACCCAGGUAGGUCGCAGUCCAUACU	17.2 nM	14.8 nM	18.8 nM	13.6 nM	14.4 nM
UGUAUGGACUGAAGGAGCGGGAAAUAAACCUGAGGAUCACCCAGGUAAUAGGCGAAAGCCACCCAGGUAGGUCGCAGUCCAUACU	10.7 nM	14.3 nM	10.6 nM	9.91 nM	12 nM
UGUAUGUGAACUGAUACCAGACCUCAAUCUUGAGGAUCACCCAAGGAGGACGAAAGUCCGGUCCCUUGGCAGCAGUUCACAUACU [ThBS - Unstable 2]	162 nM	737 nM	1390 nM	664 nM	40.5 nM
UGUAUGUGAUCUGAUACCAGCUAAUAAGCUUGAGGAUCACCCAAGUGGAGCGGAAACGCAAGCCCUUGGCAGCAGAUCGCAUACU [Denovo 4 #StaticStem #AlternativeMS2]	60.9 nM	50.6 nM	98.9 nM	89.3 nM	12.7 nM
UGUAUGUGAUCUGAUACCAGUCCAACUGGUAAAACAUGAGGAUCACCCAUGUAAAAUUGGGACCCUUGGCAGCAGAUCGCAUACU [ThBS 2]	259 nM	418 nM	615 nM		
UGUAUGUGAUCUGAUACCAGUCCAACUGGUAAAACCUGAGGAUCACCCUGGUAAAAUUGGGACCCUUGGCAGCAGAUCGCAUACU	222 nM	674 nM	560 nM	350 nM	125 nM

Sequence	apparent KD of MS2 coat protein (input ligand: arginine 13.2 mM)	apparent KD of MS2 coat protein [1]	apparent KD of MS2 coat protein [2]	apparent KD of MS2 coat protein (input ligand: none)	apparent KD of MS2 coat protein [3]
UGUAUUGGAAACAGUACUAGUGAUCCGGUCCGAGGACCGGUACGGCCGCCACUCGAUAUAAAUAAACAUGAGGAUCACCCAUGUA [Ex Tryptophan A 13]	23.3 nM	17.1 nM			18 nM
UGUCAUGGAAACAUGACAGGUCUUACCGGUCGAGGACCGGUACGGCCGCCACUCGAUUGGUGGCACAUGAGGAUCACCCAUGUUA [SS Tryp A #16]	21.8 nM	47.3 nM			34.3 nM
UGUCGGCGUAAGUUGGCAUGUCUUGCUGGUCGAGGACCGGUACGGCCGCCACUCGAUCCUUCGCACAUGAGGAUCACCCAUGUUG [SS Tryp A #25]	20.3 nM	29.3 nM			20.4 nM
UGUGUAAUUGUCUGGUAGAAUUAUUUGUUUCGAGGACCGGUACGGCCGCCACUCGAUAUUUACAUGAGGAUCACCCAUGUUAGCU [JR_SSTryptoA_Sub004]	13.9 nM	14.3 nM	11.6 nM	14 nM	14.9 nM
UGUUUCGCGGGCGAUACCAGCUUGAUCGUACUGGCCUGGUACAUGAGGAUCACCCAUGUAAGCCCUUGGCAGCGCGCGCGAGACG [#1 Exclusion - Theophylline B Attempt #3 (HarryS)]	19.6 nM	18.9 nM	15.7 nM	13.5 nM	32.4 nM
UUAAAUGUGACGGAUACCAGCGUGUUGUAGAACAUGAGGAUCACCCAUGUAGUGAUCAAGCGCCCUUGGCAGCUGGUAUGUUUGA [7.Z]	227 nM	224 nM	124 nM		
UUAAAUGUGACGGAUACCAGCGUGUUGUAGAACAUGAGGAUCACCCAUGUAGUGAUCGAGCGCCCUUGGCAGCUGGUAUGUUUGA [7.Y]	102 nM	365 nM	270 nM		
UUAAUUAUUGAAUCGUAUUGGUAUUAAGAACGAGGACCGGUACGGCCGCCACUCGUGAUAUACAUGAGGAUCACCCAUGUUAGCA [JR_Nu_SSTryptoA_Sub022]	15 nM	18.6 nM			18.1 nM
UUACCGUAAGGUAUACCGGUCUACAAUAAUCGAGGACCGGUACGGCCGCCACUCGAUGUGUAAUCACAUGAGGAUCACCCAUGUA [Tryptophan A 19]	21.1 nM	27.7 nM			27.4 nM
UUAGAUAUGACGGAUACCAGCGUGUUGUAGAACAUGAGGAUCACCCAUGUAGUGAUCGAGCGCCCUUGGCAGCUGGUAUGUUUGG [7.T]	175 nM	203 nM	335 nM		
UUAUAAGUACCGGUCCUCAGAUCCUCAUGACGAGGACCGGUACGGCCGCCACUCGAAACAUGAGGAUCACCCAUGUAAUAAUACU [Brourdmod08]	21 nM	34.5 nM			33.1 nM
UUAUGAUGUUCCGAUACCAGCCAUGUGGUUCUAACUUAACAUGAGGAUCACCCAUGUACCGGCCCUUGGCAGCGGAUGUGGAUUA [Flamini]	12 nM	14.8 nM	12.6 nM		
UUCAGCUAGUCGGCCGCCACUACUUGAGGAUCACCCAGGUAGGUCCACACUGCUUCGGCAGUGAGUAGGACCGGGACUAGCUGAG	31 nM	32.2 nM	272 nM	32.8 nM	39.4 nM
UUCGUUUACGGAAGGAGCGACGGACAUCGGUGAACGACGCACAUGAGGAUCACCCAUGUACGUCAGGUAGGUCGCCGUUAAGAGU [Somama]	23 nM	27.7 nM	19.2 nM	17.4 nM	19.6 nM
UUCGUUUGCGGAAGGAGCGACGGACAUCGGUGAACGACGCACAUGAGGAUCACCCAUGUACGUCAGGUAGGUCGCCGCUAAGAGU [Tibira]	15.5 nM	22.3 nM	19.8 nM	18 nM	25.2 nM
UUCUUUAAGUCGGCCGCCACUGAAACAUGAGGAUCACCCAUGUAAAUUUGGGAGUAGUUAUAUUACAGGACCGGGACUAUAGUAA [JR_ExcTryptoB_Sub020]	34.8 nM	48.8 nM			51 nM
UUCUUUAAGUCGGCCGCCACUGAAACAUGAGGAUCACCCAUGUAUAUUUGUGUAUAGGUGGAUUACAGGACCGGGACUAUAGUAA [JR_ExcTryptoB_Sub023]	15.1 nM	20.2 nM	14.7 nM	14.7 nM	15.2 nM
UUGAACAUGAGGAUCACCCAUGUGGAUGAUACCAGCUAAAACAUAAGCCCUUGGCAGCAUUAAAAUGAAAUAUCGAAAAGGAAAG [theeternabot_sameState_MS2_Theo_A_1]	95.1 nM	179 nM	127 nM		
UUGGCAGCAUGGGUGGCUGCCAAGGCUGAUACCAGCCACGAAAGUGGCCCUUGGCAGCAGCAAACAUGAGGAUCACCCAUGUUAA [(T)''-(M)'-(T)'-(Theo)-(Ms2)_Design3]	87.2 nM	105 nM	93.3 nM	86.3 nM	104 nM
